The results in this text go back to a protein production outcome set (Wang et al. 2014).
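Note: failed if final PepcDB status was selected cloned or expressed and not failed if soluble or beyond.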

The data set is described as follows: label from the status in PepcDB records.
Regarding “MSVVSPDPAPVPHDPQRRALLRWLVGGGALAGGLGVSAVAQGYRFGVTHEQWNLVGLTRPVRLALLTDLHYGLYIGAGSVRRWVDATLAECPDLILLGGDLVDSHFDAAARPQQTAALLAELGRLRAPLGVYAVWGNHDYGSFGRSISQSPEASRADWAARRDALRAGLAGQGVTVLLNEGRSLRDDLWLGGVDDLRMGEADSVAALRGSGTRATVLLAHNPDVLLRLRSAPGLVLSGHTHGGQVRLPLLGALKVPADPRFTMGWVRGPQGIPAYVSRGLGMSGLPVRNLCEPEITLLTLLPPGALEHHHHHH”, the protein production entry is reported as “failed”. In the case of “MSWFTTQRHSGLCRDFGRRWRRVATISSAIALICAQPLFAVPAAKPNEDFFSIAKSIELLGDVYKNVAQNYVDPVNVSEFMYSGIDGMLGQLDPYTAFLDEEQSGELDEITSGQYAGIGVTLGIFSGDLFIISVIDGQPAAKAGLKVGDQIIAIDGVKVSKKSIDEVRSTIKGSPGTNIRLSIKRDGQGPLTVISLTRGEVRISSVPFFGLFGSSGYVQMNSFSEHSREELSAAIRKIRQEAAKNRVVLNGIVLDLRGNPGGLLTSAVEVAGLFVEKNSRIVSTRGRAADSEQVYVTKTEPQEPTLPLVVMIDGDSASASEIVSGAIQELDRGVILGENSFGKGLVQSIINLPYDHILKMTTAKYYTPSGRLIQKPIARDESRRKVVLSNGDADSTKVFYTRNRRKVYGGGGIRPDVVAKADSLSEYQHKIENSGLLFRYASRFHRKHPEFRLQQLSSEPLYDDFNRFLEKEHFSFRSGAQKTLDSLKTLVQKEAGADKALAGQLDALDKALAASTRRNISRDSLHITAALQREIMRHYDERAALKRAIEDDPVAAKAFALLGDQKRYRSLLKP” it was “failed”. In the case of “MSWKIIEKYRRILAQEEGNSPKRRGGKLTVCLVYPNRYGVAMSNLGFQAVHALLNAESDILCERAFLPDPDDLREYRRSGARLLSLESQEPLSSFDIIAFSVSFESDYLNIPVIFDLAGIPALAAERTGSHPLVMGGGAALFLNPEPVADFLDLIVVGEGEAILPTFLDHIRADGIGDRAMFLAGVAGLPGIYVPSLYATEYDGARLVSREAKDGAPEQVKRIWMAEPDGRATVSEILTPGTEFSDMYLVEVSRGCGRGCRFCAAGFIYHPYRQRSLDAVKAAVAEGLSHRRKIGLVGAAVSDFREIGELCRHILAEGGTVSVSSLRIDRLDEGMIEVLKASGHKTVALAPEGGSQRIRDLINKNLTEEQILAACDLLIGHDILNLKLYFIIGLPTETMDDLEEMALLVEKIRKRVIAAARKNKRLGEIILSVNPFVPKPFTPFQWCGMEDTPSLEKKLKYLQQTVGRLSNVRLIAESPKDAWLQALLSRGDRRLSGFLLRAAELGNWKRAAREFPVDTDFLVHRTIPLDEMLPWDVIASADAERLRREYLKATPPRLEHHHHHH” it was “failed”; in that of “MSWLLVIAAGFLEVVWASGLKHADSFVDWLMIFVLIAVSFIMLIRSYRNIPMASAYTVFVGIGTAGTYVTGIFMGETFSGGQIFFLIVLLGGIIGMKMFTKENNAQSGGDE”, “failed”; in that of “MSWMQNLKNYQHLRDPSEYMSQVYGDPLAYLQETTKFVTEREYYEDFGYG”, “failed”. In the case of “MSWWQDMDQRGGVSSPSGALASAEPAPASVTLAELLHLVQKGQEVPGLEKRHITATHGEPTASLLPRRPKPWEDAGSAASPCTIALDTRTQPPTIEERSRGSPAAQLDGGPRVS” it was “failed”; in that of “MSYILIVTIAIVIFSLIFDFINGFHDTANAVATAVSTRALTPRRAILLAAVMNFIGALTFTGVAGTITKDIVDPFKLQHGLVVVLAAIIAAIIWNLITWLYGIPSSSSHALIGSIAGAAIASKGSFAVLHYQGFTKIIIVLIISPIIAFCVGYMMYTIVKIVFKNSNLTRTNRNFRFFQIFTAALQSFSHGTNDAQKSMGIITLALIVGNLQDGSNVEPQVWVKVVCATAMGLGTAVGGWKIIKTVGGNIMKIRPANGAAADISSALTIFVASSLHFPLSTTHVVSSSILGVGASNRAKGVKWSTAQRMVVTWVITLPISAVLAAIIYFIIHLFLK”, “failed”; in that of “MSYLSQAPLYSSIPRKNCPIAWEGQFTRGDKGTSTISFEAVASHDLWIWHTFFGCASTLNDINFLDRSPVFDDIEQGNTPRVNFFVYQRQYNMAYYLADGIYPSYPTFVKSIRLPQSEPDKLFVQLQEGCRKDIERAFGVLHARFKIIWNIADLAIIMRSCIILHNMIVENERDTYAQHWTDYDQSKESGSSTPQPFSTEVLHAFANHVHARSKLRDSICTS”, “not failed”.

For “MSYLVVTIKVILITGMPGSGKSEFAKLLKERGAKVIVMSDVVRKRYSIEAKPGERLMDFAKRLREIYGDGVVARLCVEELGTSNHDLVVFDGVRSLAEVEEFKRLLGDSVYIVAVHSPPKIRYKRMIERLRSDDSKEISELIRRDREELKLGIGEVIAMADYIITNDSNYEEFKRRCEEVTDRVLKNG”, the protein production result is “failed”.

For the sequence “MSYQNANYSAFYVSEPFSESNLGANSTHDFVYYNMLRMWKGEDNSFPFNDAHDKTYNVRDGSDWEKTLKPRLHTRLDNSKNIILFLSSITANSRALREEMNYGIGTKGLPVIVIYPDYDKKSDIVDSNGNFKKQIKDLWDKLPAFRDNMSSVATLHIPCTKSVIISALNNEDFMVNTMADAEKYYYKP”, the protein production entry was “not failed”. On to “MSYQPTSLTVASYNLRNANGSDSARGDGWGQRYPVIAQMVQYHDFDIFGTQECFLHQLKDMKEALPGYDYIGVGRDDGKDKGEHSAIFYRTDKFDIVEKGDFWLSETPDVPSKGWDAVLPRICSWGHFKCKDTGFEFLFFNLHMDHIGKKARVESAFLVQEKMKELGRGKNLPAILTGDFNVDQTHQSYDAFVSKGVLCDSYEKCDYRYALNGTFNNFDPNSFTESRIDHIFVSPSFHVKRYGVLTDTYRSVRENSKKEDVRDCPEEITIKAYEARTPSDHFPVKVELVFDLEHHHHHH”, for which the protein production entry is given as “not failed”. In the case of “MSYQTWWSRVQVVDPEQLLDAVEEWDRPLVALTTPGTLARGLSLQVFRRIAPDEKNLLIIPHFCISGTIEKRLLEEGCCDENKITNENESIRIRCKTMNLHFGFHADTRDLLLFFSQWKPSCIVLVHGEGEKMDYLARVVQEEWGIQCWVPKEEQWITWKPNLTKSQ” it was “failed”. As for “MSYSEIAACLAYAVSVWLAARNNVHTWWIGIIGSILYGWVFWSVQLYADVTLQLFFIATSITGWIHWLKGQGGDILPVRRTQASHFFLLLLCAVVVAGGYGFLLHTFTNAWAPWLDSLILTFSVLAQFMLMGRRIENWFVWLAVNTLAVPLYMTRGLNLTAGLYFLFWINAWHGLYQWRKELQTS”, the entry is “failed”. As for “MSYSVTLTGPGPWGFRLQGGKDFNMPLTISRITPGSKAAQSQLSQGDLVVAIDGVNTDTMTHLEAQNKIKSASYNLSLTLQKSKRPIPISTTAPPIQSPLPVIPHQKVVANSPANADYQERFNPSVLKDSALSTHKPIEVKGLGGKATIIHAQYNTPISMYSQDAIMDAIAGQAQAQGSDFSGASPLASLPVKDLAVDSASPVYQAVIKTQSKPEDEADEWARRSSNLQSRSFRILAQMTGTEYMQDPDEEALRRSSTPIEHAPVCTSQATSPLLPASAPSPAAASPIAASPTLATAAAAHAVAASAAGPASSPVENPRPQASAYSPAAATSPAPAAHTSYSEGPAAPAPKPRVVTTASIRPSVYQPVPASPYSPSPGANYSPTPYTPSPAPAYTPSPAPTYTPSPAPTYSPSPAPAYTPSPAPNYNPTPSAAYSGGPSESASRPPWVTDDSFSQKFAPGKSTTSVSKQTLPRGAPAYNPTGPQVTPLARGTFQRAERFPASSRTPLCGHCNNVIRGPFLVAMGRSWHPEEFNCAYCKTSLADVCFVEEQNNVYCERCYEQFFAPICAKCNTKIMGEVMHALRQTWHTTCFICAACKKPFGNSLFHMEDGEPYCEKDYINLFSTKCHGCDFPVEAGDKFIEALGHTWHDTCFICAVCHVNLEGQPFYSKKDKPLCKKHAHAINV”, the entry is “failed”; as for “MTAADPGTRIVRWALVAGAVAGLLAVMAGAFGAHGLRHVVSERGLEVFQTAVSYQMYHALALVAVSLMPALGLSGNLLTLACGFWLAGMMLFSGSLYLLVLTGIHWLGPVTPVGGVCFMVGWVLLIVAALKK”, “failed”.

For the sequence “MTAAPGTSMATPHVAGIAALLLQAHPSWTPDKVKTALIETADIVKPDEIADIAYGAGRVNAYKAINYDNYAKLVFTGYVANKGSQTHQFVISGASFVTATLYWDNANSDLDLYLYDPNGNQVDYSYTAYYGFEKVGYYNPTDGTWTIKVVSYSGSANYQVDVVSDGSLSQLEHHHHHH”, the protein production entry is reported as “not failed”. In the case of “MTAETPSLTSPQAQRILRLYHLYRLTIGVVLVLLISSSLETELLQLANPNLFRSGCWLYLVFNILVVVLLERPSRQAQLFGLAMTDAIMLSGLFYAAGGPSSGIGNLLIASVAISNVLLRGRIGLLIAAVSAIGIIYLTFYISFGTPSVSNDYVQAGSLGALCFAAALLVQALTARLQVSEGLAEQRAADVDSLEELNALILQRMRTGIVVLDARRQVVLANQGALTLLGHERLVGQVIDAYSPQLVERLRQWLINPIMVPRSITTSSIGPVLQPSFAALNRGDQRQTLIFLEDLSQIAHQAQQLKLAALGRLTAGIAHEIRNPLGAVSHAAQLLNESEDLSAPDRRLGQIIHDQSQRIDRVIENVLQLSRRREAQPELLDLKVWLENFVSDFRSSAAADQSIHVQISSGMLTTRMDAGQLTQIITNLVQNGLRYSRRNHPSAQVWLNLHHDRESDLPILEVLDDGPGVSEQHLSKIFEPFFTTESKGTGLGLYLSRELCESNQAHLEYIPRPHDGGSCLRITFAHPFKTS” it was “failed”. As for “MTAFYLLVPFLFIRFIFLSLLDRKATGRAAHFASMQGKEIIAYYLYQLSTLMLLIVPFFLKVSLHFSSFFYLGLGAYLLGSVLLFLVIKDFANPDEKGLNTKGLYALSRHPMYIAYFVLFLGVAMLTQSLTLLIFLAIFQLSAHFIILAEERECLIKFGAAYQEYQKRVRMYL”, the entry is “failed”; as for “MTAGWCCRTVRAALFAAVCVLLAALGHVMMSGTAVPWWAMTVAALVTGGTGWCLAGRERGLALIVSVVVVAQGALHSAFSVAQSAAHSAGSVGADSMPKGSMGSDMSSVHMDSVHMDSMDMGNMGAGHLAHLGHDMGGGSSFGMLAAHSAAALLCGLWLAYGERAAFRILRALAGRLAAPLRLLLALPTPAHRPRIRVRRGSSDRTPRRLLLVHAITSRGPPVGTAVI”, “failed”; as for “MTAIPRAPLILGLAGLIPFLWGALTYLSPAAQAWGAAALGPRFVGPYVQIAYGQIILAFMSGVLWGFATKADDRRAATGYVLAVLPALWAFFMTGGGPTGAAINLIFGFLGLLMLDAAFASWGLAPVWWMRLRLLLTAVVTICLAVGAFL”, “failed”. As for “MTALLTRVWACTLCQAELPFPPKPILQASSQARILIAGQAPGVKTHHKGIPFDDASGERLRAWLNVSREQFYDPALFAIVPMGFCFPGNIERKGKKQGDKPPRPECAATWHKALLALMPNIELVIVLGQYAMDYHLSRLLMDNMHKNRGFNSTPLAAAHTIGKATSNKKITLTQAVEQWPLYWPQLMVMPHPSPRNNLWLKQHPEFEQHLIPTLRSRISSLLT”, the entry is “failed”; as for “MTANAYVRARIDQTLKDDATAVLDRLGLTVSDVMRMMLTRIAREKALPIELTQPNAETLAAIEEARAIAAAGRNRFGTSEALFEALDAGKRLEHHHHHH”, “not failed”.
